Measurements as given in patent US11994512B2, “Single-cell genomic methods to generate ex vivo cell systems that recapitulate in vivo biology with improved fidelity” (Massachusetts Institute of Technology, priority 2018, dated 2024).

Tested on: intracellular proteome of ENR+CD and ENR organoids
Test: LC-MS/MS TMT proteomics of ENR+CD versus ENR organoids
Assay type: cell-based, C57BL/6 mice
Settings: for Average logFC: ENR+CD versus ENR organoids, sample pairs in aggregate (n=4, 2 technical replicates from two biological donors); for M1-1 Log2 Median Normalized / M1-2 Log2 Median Normalized / M2-1 Log2 Median Normalized / M2-2 Log2 Median Normalized: protein abundance ratio ENR+CD versus ENR organoids, LC-MS/MS TMT proteomics; for M1-1 Log2 Median Normalized: sample pair M1-1; for M1-2 Log2 Median Normalized: sample pair M1-2; for M2-1 Log2 Median Normalized: sample pair M2-1; for M2-2 Log2 Median Normalized: sample pair M2-2; for change: up = enriched in ENR+CD, down = enriched in ENR, FDR<0.05 and log fold change cut-off

Row | Molecule | Average logFC | M1-1 Log2 Median Normalized | M1-2 Log2 Median Normalized | M2-1 Log2 Median Normalized | M2-2 Log2 Median Normalized | change
1 | Q8CAB8 (protein, UniProt Q8CAB8 1-329, looked up, full-length) MELHILEHRLQVASVAKESIPLFTYGLIKLAFLSSKTRCKFFSLTETPEDYTIIVDEEGFLELPSSEHLSVADATWLALNVVSGGGSFSSSQPIGVTKIAKSVIAPLADQNISVFMLSTYQTDFILVRERDLPFVTHTLSSEFTILRVVNGETVAAENLSFTNGFVKPKMVQRPVIHPLSSPSNRFCVTSLDPDTLPAVATLLMDVMFYSNGVKDPMAASDDCGHIRFFSFSLIEGYISLVMDVQTQQRFPSHLLFTSASGELWKMVRIGGQPLGFDECGIVAQISEPLAAADIPAYYISTFKFDHALVPEENISGVIHALKVSQAGKH | 1.494 | 1.555 | 0.678 | 1.5715 | 1.494 | up
2 | Q8C2E4 (protein, UniProt Q8C2E4 1-695, looked up, full-length) MDLLRLSRLFSGPRPIGLSVLQHLDLVGSTRWTGGREGPARLRAAFCGSSSPLPLGSGNQKEMSSLCSDSSKLSTVAPQEEAEEESFGSLSGKFSSRRIFHKSTAQLYNLQLKEQGGEEEELEPRPWRGRRNTQYWYFFQCKRLIKEGKLAEALDLFERQMLKEERLQPLECNYTVLIGGCGRVGYLKKAFRLFNDMKKRDLEPSDATYTALFNVCAESPWKDSALQSALKLRQQLQARNFQLNLKTYHALLKVAAKCADLRLCLDVFKEIIQRGHAVTEETFCFLLVGCIQDKKTGFRQAMQVWRQMLSLGIKPSRHGYNLLLEAARDCGLGDPEVASRLLLTSQEETILLPPPKGRHMAGRKVQAKTVHGVSLRHVEALERQLFLEPSQKLEGPPALPEARVTSRTQPEVETTAEPGHTVALTPLASKPTHLELEVSLLSLGTLSPAVVSFGTVATPADRLALMGGLEGFLGKMTEHGLQPDIKTLTLLAEVVEPGSTAESSLLSVLDRHRVEADVTFFNTLIRKKSKLGDLEGAKALLPILAKKGIVPNLRTFCNLAIGCHRPRDGMQLLADMKKSQVSPNIHIYSTLINAALKKLDYTYLISILKDMRQNSVPVNEVVVRQLEFAAEYPPTFDRYKGKNTYLEKIDGFRAYYKQWLKAMPAEEAPHPWQEFQNKPVGDQDTTDKAGGLRDG | −1.79 | −1.411 | −1.637 | −1.8825 | −2.231 | down
3 | Q8CFC7 (protein, UniProt Q8CFC7 1-668, looked up, full-length) MWHEARKHERKLRGMMVDYKKRAERRREYYEKIKKDPAQFLQVHGRACKVHLDSAVALAAESPVNMMPWQGDTNNMIDRFDVRAHLDHIPDYTPPLLTTISPEQESDERKCNYERYRGLVQNDFAGISEEQCLYQIYIDELYGGLQRPSEDEKKKLAEKKASIGYTYEDSTVAEVEKVAEKPEEEESPAEEESNSDEDEVIPDIDVEVDVDELNQEQVADLNKQATTYGMADGDFVRMLRKDKEEAEAIKHAKALEEEKAMYSGRRSRRQRREFREKRLRGRKISPPSYARRDSPTYDPYKRSPSESSSESRSRSRSPSPGREEKITFITSFGGSDEEAAAAAAAAAASGAAPGKPPAPPQTGGPAPGRNASTRRRSSSSSASRTSSSRSSSRSSSRSRRGYYRSGRHARSRSRSWSRSRSRSRRYSRSRSRGRRHSDGGSRDGHRYSRSPARRGGYVPRRRSRSRSRSGDRYKRGARGPRHHSSSHSRSSWSLSPSRSRSVTRSGSRSQSRSRSRSQSHSQSQSHSPSPPREKLTRPAASPAVGEKLKKTEPAAGKETGAAKPKLTPQERLKLRMQKALNRQFKADKKAAQEKMIQQEHERQEREDELRAMARKIRMKERERREKEREEWERQYSRQSRSPSPRYSREYSSSRRRSRSRSRSPHYRH | −1.139 | −1.219 | −0.633 | −0.8625 | −1.84 | down
4 | Q8C5N3 (protein, UniProt Q8C5N3 1-908, looked up, full-length) MKSSVAHMKSSGHNRRETHSSYRRSSSPEDRYTEQERSPRDRGYSDYSRSDYERSRRGYSYDDSMESRSRDREKRRERERDADHRKRSRKSPSPDRSPARGGGQSSPQEEPTWKKKKDELDPLLTRTGGAYIPPAKLRMMQEQITDKSSLAYQRMSWEALKKSINGLINKVNISNISIIIQELLQENIVRGRGLLSRSVLQAQSASPIFTHVYAALVAIINSKFPQIGELILKRLILNFRKGYRRNDKQLCLTASKFVAHLINQNVAHEVLCLEMLTLLLERPTDDSVEVAIGFLKECGLKLTQVSPRGINAIFERLRNILHESEIDKRVQYMIEVMFAVRKDGFKDHPVILEGLDLVEEDDQFTHMLPLEDDYNPEDVLNVFKMDPNFMENEEKYKAIKKEILDEGDSDSNTDQGAGSSEDEEEEDEEEEGEDEEGGQKVTIHDKTEINLVSFRRTIYLAIQSSLDFEECAHKLLKMEFAESQTKELCNMILDCCAQQRTYEKFFGLLAGRFCMLKKEYMESFESIFKEQYDTIHRLETNKLRNVAKMFAHLLYTDSLPWSVLECIKLSEETTTSSSRIFVKIFFQELCEYMGLPKLNARLKDETLQPFFEGLLPRDNPRNTRFAINFFTSIGLGGLTDELREHLKNTPKVIVAQKPEAEQKKPALTSSSSESSSASDSSDSESDSSESSSESSSDASDSSSSSSTQSSTSGITAHSAKGTRKKRQGKARGEEVDKLARGHQALERRREGGREDQRHQEGRTERARSERRRAQNSRDADWRDPLAKHIDDRSHENSHSRVGNGREQGSHREPEDRHGEPKKRRERRDSFSENEKQRSRNQDSDNVRRKDRSKSRERSRRHSGHKGDDARCQNSAERRWEKPGRRPEQSRESKRSQDRRREKSPTTQK | −1.281 | −1.581 | −0.922 | −0.9735 | −1.648 | down
5 | Q8C196 (protein, UniProt Q8C196 1-1500, looked up, full-length) MTRILTACKVVKTLKSGFGFANVTTKRQWDFSRPGIRLLSVKAKTAHIVLEDGTKMKGYSFGHPSSVAGEVVFNTGLGGYPEALTDPAYKGQILTMANPIIGNGGAPDTTARDELGLNKYMESDGIKVAGLLVLNYSNDYNHWLATKSLGQWLQEEKVPAIYGVDTRMLTKIIRDKGTMLGKIEFEGQSVDFVDPNKQNLIAEVSTKDVKVFGKGNPTKVVAVDCGIKNNVIRLLVKRGAEVHLVPWNHDFTQMEYDGLLIAGGPGNPALAQPLIQNVKKILESDRKEPLFGISTGNIITGLAAGAKSYKMSMANRGQNQPVLNITNRQAFITAQNHGYALDNTLPAGWKPLFVNVNDQTNEGIMHESKPFFAVQFHPEVSPGPTDTEYLFDSFFSLIKKGKGTTITSVLPKPALVASRVEVSKVLILGSGGLSIGQAGEFDYSGSQAVKAMKEENVKTVLMNPNIASVQTNEVGLKQADAVYFLPITPQFVTEVIKAERPDGLILGMGGQTALNCGVELFKRGVLKEYGVKVLGTSVESIMATEDRQLFSDKLNEINEKIAPSFAVESMEDALKAADTIGYPVMIRSAYALGGLGSGICPNKETLIDLGTKAFAMTNQILVERSVTGWKEIEYEVVRDADDNCVTVCNMENVDAMGVHTGDSVVVAPAQTLSNAEFQMLRRTSVNVVRHLGIVGECNIQFALHPTSMEYCIIEVNARLSRSSALASKATGYPLAFIAAKIALGIPLPEIKNVVSGKTSACFEPSLDYMVTKIPRWDLDRFHGTSSRIGSSMKSVGEVMAIGRTFEESFQKALRMCHPSVDGFTPRLPMNKEWPANLDLKKELSEPSSTRIYAIAKALENNMSLDEIVRLTSIDKWFLYKMRDILNMDKTLKGLNSDSVTEETLRKAKEIGFSDKQISKCLGLTEAQTRELRLKKNIHPWVKQIDTLAAEYPSVTNYLYVTYNGQEHDIKFDEHGIMVLGCGPYHIGSSVEFDWCAVSSIRTLRQLGKKTVVVNCNPETVSTDFDECDKLYFEELSLERILDIYHQEACNGCIISVGGQIPNNLAVPLYKNGVKIMGTSPLQIDRAEDRSIFSAVLDELKVAQAPWKAVNTLNEALEFANSVGYPCLLRPSYVLSGSAMNVVFSEDEMKRFLEEATRVSQEHPVVLTKFVEGAREVEMDAVGKEGRVISHAISEHVEDAGVHSGDATLMLPTQTISQGAIEKVKDATRKIAKAFAISGPFNVQFLVKGNDVLVIECNLRASRSFPFVSKTLGVDFIDVATKVMIGESIDEKRLPTLEQPIIPSDYVAIKAPMFSWPRLRDADPILRCEMASTGEVACFGEGIHTAFLKAMLSTGFKIPQKGILIGIQQSFRPRFLGVAEQLHNEGFKLFATEATSDWLNANNVPATPVAWPSQEGQNPSLSSIRKLIRDGSIDLVINLPNNNTKFVHDNYVIRRTAVDSGIALLTNFQVTKLFAEAVQKSRTVDSKSLFHYRQYSAGKAA | −1.21 | −1.302 | −0.76 | −1.9525 | −0.825 | down
6 | Q8CGK7 (protein, UniProt Q8CGK7 1-381, looked up, full-length) MGCLGNSSKTAEDQGVDEKERREANKKIEKQLQKERLAYKATHRLLLLGAGESGKSTIVKQMRILHVNGFNPEEKKQKILDIRKNVKDAIVTIVSAMSTIIPPVPLANPENQFRSDYIKSIAPITDFEYSQEFFDHVKKLWDDEGVKACFERSNEYQLIDCAQYFLERIDSVSLVDYTPTDQDLLRCRVLTSGIFETRFQVDKVNFHMFDVGGQRDERRKWIQCFNDVTAIIYVAACSSYNMVIREDNNTNRLRESLDLFESIWNNRWLRTISIILFLNKQDMLAEKVLAGKSKIEDYFPEYANYTVPEDATPDAGEDPKVTRAKFFIRDLFLRISTATGDGKHYCYPHFTCAVDTENIRRVFNDCRDIIQRMHLKQYELL | −1.357 | −1.028 | −1.1 | −1.4805 | −1.82 | down
7 | Q8CIV3 (protein, UniProt Q8CIV3 1-451, looked up, full-length) MLRLCFFISFMCLVKSDTDETCPSFTRLSFHSAVVGTGLSVRLMLYTQRDQTCAQIINSTALGSLNVTKKTTFIIHGFRPTGSPPVWIEELVQSLISVQEMNVVVVDWNRGATTVIYPHASSKTRQVASILKEFIDQMLVKGASLDNIYMIGVSLGAHIAGFVGESYEGKLGRVTGLDPAGPLFNGRPPEERLDPSDALFVDVIHSDTDALGYKEALGHIDFYPNGGLDQPGCPKTIFGGIKYFKCDHQMSVYLYLASLQNNCSITAYPCDSYRDYRNGKCVSCGAGQIVPCPRVGYYADSWKEYLWDRDPPMTKAFFDTAETKPYCMYHYFVDIVSWNKSVRRGFITIKLRGEDGNITESKIDHEPSAFEKYHQVSLLARFNRDLDKVAEISLLFSTGSVVGPKYKLRVLQMKLRSLAHPDRPHLCRYDLVLMENVETSFQPILCSQQQM | 1.179 | 1.6 | 0.988 | 0.9025 | 1.225 | up
